Measurements reported in article PMC11057775, “Structural characterization of two nanobodies targeting the ligand-binding pocket of human Arc” (PLOS ONE, 2024).
Where no end group is shown, it is not given here.

T1: Arc N-lobe (Arc-NL, Arc 207-277) (human, UniProt Q7LC44 207-277)
T1 construct: Activity-regulated cytoskeleton-associated protein (Arc), N-lobe, residues 207-277; identical for human, rat and mouse Arc-NL; construct His6-MBP-TEV-NL in pETMBP_1a; 8.9 kDa as printed; also called human Arc N-lobe; source: E. coli BL21(DE3), purified (Ni-NTA, tag cleavage, reverse Ni-NTA, SEC); not shown: His6, N-terminal, cleaved; MBP, N-terminal, cleaved
T1 sequence (looked up): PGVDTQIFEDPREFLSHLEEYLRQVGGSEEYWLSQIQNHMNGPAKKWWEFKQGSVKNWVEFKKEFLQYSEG

B1: FITC-labelled, TAT-tagged TARPγ2 peptide (forward peptide P1) (peptide)
peptide: YGRKKRRQRRRGGRIPSYRYR
modifications: also: FITC label, position not given here
notes: stretch of the transmembrane AMPAR regulatory protein γ2 (TARPγ2, stargazin); the split into TAT, linker and TARPγ2 stretch is mine; also called TARPγ2-derived peptide; source: synthetic peptide, bought: GenScript Biotech
B2: full-length rat Arc with a poly-Ala mutation in residues 113-119 (rArcFL-7A) (natural protein, UniProt Q63053 1-396, looked up)
chain: MELDHMTTGGLHAYPAPRGGPAAKPNVILQIGKCRAEMLEHVRRTHRHLLTEVSKQVERELKGLHRSVGKLENNLDGYVPTGDSQRWKKSIKACLCRCQETIANLERWVKREAAAAAAAFYRLERWADRLESMGGKYPVGSEPARHTVSVGVGGPEPYCQEADGYDYTVSPYAITPPPAAGELPEQESVGAQQYQSWVPGEDGQPSPGVDTQIFEDPREFLSHLEEYLRQVGGSEEYWLSQIQNHMNGPAKKWWEFKQGSVKNWVEFKKEFLQYSEGTLSREAIQRELDLPQKQGEPLDQFLWRKRDLYQTLYVDAEEEEIIQYVVGTLQPKFKRFLRHPLPKTLEQLIQRGMEVQDGLEQAAEPSVTPLPTEDETEALTPALTSESVASDRTQPE
notes: Activity-regulated cytoskeleton-associated protein (Arc), rat, full length, residues 113-119 replaced by alanines; expressed with an N-terminal His6-MBP fusion in pHMGWA; also called flArc dimeric mutant; dimeric full-length Arc; not shown: His6, N-terminal, cleaved; MBP, N-terminal, cleaved
B3: anti-Arc nanobody E5 (VHH)
VHH: EVQLQESGGGLVQAGGSLRLSCAASGSIFSGNAMGWYRQAPGKQREVVAVISAGNSSNYVDSVKGRFTISRDNAKNTVYLQMNSLKPEDTAVYYCNVVKRGPQWGMEWGKGTLVTVSS
notes: alpaca nanobody; 12.8 kDa as printed; provided by Nanotag Biotechnologies in the vector pNT1433 (His6-TEV-E5); CDR3 holds a PxW motif; source: E. coli BL21(DE3), purified (Ni-NTA, tag cleavage, reverse Ni-NTA, SEC); not shown: His6, N-terminal, cleaved
B4: anti-Arc nanobody H11 (VHH)
VHH: EVQLLESGGGLVQAGDSLRLSCAASGRTFSAYAMGWFRQAPGKEREFVAAISWSGNSTYYADSVKGRFTISRDNAKNTVYLQMNSLKPEDTAIYYCAARKPMYRVDISKGQNYDYWGQGTQVTVSS
notes: alpaca nanobody; 14.1 kDa as printed; provided by Nanotag Biotechnologies in the vector pNT1433 (His6-TEV-H11); CDR3 holds a PxY motif; source: E. coli BL21(DE3), purified (Ni-NTA, tag cleavage, reverse Ni-NTA, SEC); not shown: His6, N-terminal, cleaved

How the values were obtained:
[1] = molecular target: T1, Arc N-lobe (Arc-NL, Arc 207-277); test: ITC; 2 mM P1 (titrant) into 200 μM Arc-NL (titrate), TBS, 20 °C, three sequential titrations concatenated, 1:1 binding model, one replicate; conditions: both partners purified
[2] = molecular target: the molecule itself; test: SEC-MALS + other: SEC-SAXS; rArcFL-7A alone and with E5, C11 or both; 20 mM Tris pH 7.5, 150 mM NaCl, 0.5 mM TCEP; 1:1.3 protein-to-nanobody ratio for SAXS
[3] = molecular target: T2, Arc N-lobe (Arc-NL, Arc 207-277) (human, UniProt Q7LC44); test: ITC; displacement assay: 100 μM E5/H11 (titrant) into 10 μM Arc-NL saturated with 100 μM P1, TBS, 20 °C; apparent constants, one replicate; conditions: both partners purified
T2 construct: Activity-regulated cytoskeleton-associated protein (Arc), N-lobe, residues 207-277; identical for human, rat and mouse Arc-NL; construct His6-MBP-TEV-NL in pETMBP_1a; 8.9 kDa as printed; also called human Arc N-lobe; source: E. coli BL21(DE3), purified (Ni-NTA, tag cleavage, reverse Ni-NTA, SEC); not shown: His6, N-terminal, cleaved; MBP, N-terminal, cleaved

[4] = molecular target: T2, Arc N-lobe (Arc-NL, Arc 207-277); test: ITC; 15 μM E5/H11 (titrant) into 1.5 μM Arc-NL (titrate), TBS (20 mM Tris-HCl pH 7.5, 150 mM NaCl), 20 °C, 1:1 binding model, four replicates; conditions: both partners purified
[5] = molecular target: T3, full-length rat Arc with a poly-Ala mutation in residues 113-119 (rArcFL-7A) (rat, UniProt Q63053, poly-Ala mutation in residues 113-119); test: SEC-MALS + other: SEC-SAXS; rArcFL-7A alone and with E5, C11 or both; 20 mM Tris pH 7.5, 150 mM NaCl, 0.5 mM TCEP; 1:1.3 protein-to-nanobody ratio for SAXS; conditions: both partners purified
T3 construct: Activity-regulated cytoskeleton-associated protein (Arc), rat, full length, residues 113-119 replaced by alanines; expressed with an N-terminal His6-MBP fusion in pHMGWA; also called flArc dimeric mutant; dimeric full-length Arc; not shown: His6, N-terminal, cleaved; MBP, N-terminal, cleaved

| Binder | dH-App (Arc-NL saturated with P1) [3] [kcal/mol] | Kd [4] [nM] | dH [4] [kcal/mol] | further results |
| --- | --- | --- | --- | --- |
| B1 | – | – | – | Kd [1]: 5.31 µM; dH [1]: -14.9 kcal/mol |
| B2 | – | – | – | stoichiometry N [2]: 2 |
| B3 | -12 | 0.99 | -23.2 | stoichiometry Arc:E5:C11 of the ternary complex [5]: 1 E5 per Arc chain (2 Arc : 2 E5 : 2 C11); stoichiometry N [5]: 1 E5 per Arc chain (2 E5 : 2 Arc) |
| B4 | -10.3 | 1.14 | -23.5 | – |
